Columns and labels:
[1] = target: equine follicle-stimulating hormone receptor wild type (eFSHR-wt) (equine) (UniProt P47799)
eFSHR-N268Q (equine) = eFSHR-N268Q (equine) (UniProt P47799)
eFSHR-N199Q (equine) = eFSHR-N199Q (equine) (UniProt P47799)
eFSHR-N191Q (equine) = eFSHR-N191Q (equine) (UniProt P47799)
eFSHR-N293Q (equine) = eFSHR-N293Q (equine) (UniProt P47799)
eFSHR-N293Q (equine), sequence (P47799 18-694 N293Q): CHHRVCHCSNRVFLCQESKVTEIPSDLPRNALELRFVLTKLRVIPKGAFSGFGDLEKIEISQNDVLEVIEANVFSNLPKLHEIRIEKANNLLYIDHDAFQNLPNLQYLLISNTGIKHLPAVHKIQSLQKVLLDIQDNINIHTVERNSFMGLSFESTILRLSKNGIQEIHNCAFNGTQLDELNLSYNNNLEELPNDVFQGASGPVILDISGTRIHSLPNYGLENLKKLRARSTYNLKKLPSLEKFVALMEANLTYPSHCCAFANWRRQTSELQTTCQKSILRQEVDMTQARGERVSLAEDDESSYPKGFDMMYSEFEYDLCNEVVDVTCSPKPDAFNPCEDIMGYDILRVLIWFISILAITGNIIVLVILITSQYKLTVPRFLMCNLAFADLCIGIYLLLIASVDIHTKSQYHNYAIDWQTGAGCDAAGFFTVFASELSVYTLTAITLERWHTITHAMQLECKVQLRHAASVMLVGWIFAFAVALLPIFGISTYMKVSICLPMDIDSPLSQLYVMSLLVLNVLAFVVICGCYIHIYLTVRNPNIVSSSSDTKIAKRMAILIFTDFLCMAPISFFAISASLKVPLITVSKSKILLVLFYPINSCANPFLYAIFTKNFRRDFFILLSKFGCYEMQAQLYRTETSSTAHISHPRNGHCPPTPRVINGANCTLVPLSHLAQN

Human FSH (hFSH), sequence (P01215 25-116): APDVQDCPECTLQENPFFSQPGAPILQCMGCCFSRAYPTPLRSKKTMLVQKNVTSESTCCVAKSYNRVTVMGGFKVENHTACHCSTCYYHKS
Human FSH (hFSH), sequence (P01225 19-129): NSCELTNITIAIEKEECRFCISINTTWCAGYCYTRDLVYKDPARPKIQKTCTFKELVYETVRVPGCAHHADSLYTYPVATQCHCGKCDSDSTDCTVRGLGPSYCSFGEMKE
eFSHR-N268Q (equine), sequence (P47799 18-694 N268Q): as the sequence (P47799 18-694 N293Q) above, with N251Q, Q276N counted along it
eFSHR-N199Q (equine), sequence (P47799 18-694 N199Q): as the sequence (P47799 18-694 N293Q) above, with N182Q, Q276N counted along it
eFSHR-N191Q (equine), sequence (P47799 18-694 N191Q): as the sequence (P47799 18-694 N293Q) above, with N174Q, Q276N counted along it
equine follicle-stimulating hormone receptor wild type (eFSHR-wt) (equine), sequence (P47799 18-694): as the sequence (P47799 18-694 N293Q) above, with Q276N counted along it

EC50 of hFSH-stimulated cAMP response (HTRF cAMP assay), CHO-K1 cells expressing the receptor, 30 min at room temperature [1]: 0.99 µg/mL
EC50 of hFSH-stimulated cAMP response (HTRF cAMP assay), CHO-K1 cells expressing the receptor, 30 min at room temperature (eFSHR-N268Q (equine)): 0.806 µg/mL
EC50 of hFSH-stimulated cAMP response (HTRF cAMP assay), CHO-K1 cells expressing the receptor, 30 min at room temperature (eFSHR-N199Q (equine)): 2.21 µg/mL
EC50 of hFSH-stimulated cAMP response (HTRF cAMP assay), CHO-K1 cells expressing the receptor, 30 min at room temperature (eFSHR-N191Q (equine)): 2.11 µg/mL
EC50 of hFSH-stimulated cAMP response (HTRF cAMP assay), CHO-K1 cells expressing the receptor, 30 min at room temperature (eFSHR-N293Q (equine)): 1.24 µg/mL
Substance: Human FSH (hFSH) (from UniProt P01215 25-116; P01225 19-129) (ligand)
